From patent US7083511

Experiments:
[1] = target: T1, GST-SGK (full length, wild type), O00141
T1 chain: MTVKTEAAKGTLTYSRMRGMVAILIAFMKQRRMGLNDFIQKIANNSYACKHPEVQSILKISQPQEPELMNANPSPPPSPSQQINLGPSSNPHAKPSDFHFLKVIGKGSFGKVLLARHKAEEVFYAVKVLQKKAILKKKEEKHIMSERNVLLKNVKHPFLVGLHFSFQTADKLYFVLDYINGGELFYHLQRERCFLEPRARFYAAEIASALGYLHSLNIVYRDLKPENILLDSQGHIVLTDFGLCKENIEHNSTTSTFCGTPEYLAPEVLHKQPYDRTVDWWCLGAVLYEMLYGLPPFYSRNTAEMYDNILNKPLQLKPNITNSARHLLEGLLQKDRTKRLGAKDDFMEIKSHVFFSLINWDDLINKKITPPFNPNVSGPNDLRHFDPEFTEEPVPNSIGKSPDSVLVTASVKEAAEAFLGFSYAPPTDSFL

[2] = target: GST-SGK[T256A/S422D], O00141
[3] = target: GST-SGK with both Thr256 and Ser422 mutated to Ala, O00141
[4] = target: GST-ΔN-SGK(61-431)[S422D], O00141
[5] = target: GST-SGK with Lys127 mutated to Ala (kinase dead), O00141
GST-SGK3 (wild type) = target: T2, GST-SGK3 (wild type)
T2 chain: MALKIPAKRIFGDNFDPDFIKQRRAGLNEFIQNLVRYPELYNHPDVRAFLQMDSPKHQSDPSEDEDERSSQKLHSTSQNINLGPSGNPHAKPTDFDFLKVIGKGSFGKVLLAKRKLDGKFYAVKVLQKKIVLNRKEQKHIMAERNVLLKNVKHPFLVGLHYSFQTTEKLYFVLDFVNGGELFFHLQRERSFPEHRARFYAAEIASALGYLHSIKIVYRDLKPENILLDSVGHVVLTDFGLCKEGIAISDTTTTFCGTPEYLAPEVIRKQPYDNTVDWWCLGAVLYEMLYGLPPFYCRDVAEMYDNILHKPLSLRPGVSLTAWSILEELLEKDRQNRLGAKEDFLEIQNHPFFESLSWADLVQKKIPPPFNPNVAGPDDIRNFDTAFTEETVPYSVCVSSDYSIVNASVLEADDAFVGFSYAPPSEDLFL

GST-SGK2α (wild type) = target: T3, GST-SGK2α (wild type)
T3 chain: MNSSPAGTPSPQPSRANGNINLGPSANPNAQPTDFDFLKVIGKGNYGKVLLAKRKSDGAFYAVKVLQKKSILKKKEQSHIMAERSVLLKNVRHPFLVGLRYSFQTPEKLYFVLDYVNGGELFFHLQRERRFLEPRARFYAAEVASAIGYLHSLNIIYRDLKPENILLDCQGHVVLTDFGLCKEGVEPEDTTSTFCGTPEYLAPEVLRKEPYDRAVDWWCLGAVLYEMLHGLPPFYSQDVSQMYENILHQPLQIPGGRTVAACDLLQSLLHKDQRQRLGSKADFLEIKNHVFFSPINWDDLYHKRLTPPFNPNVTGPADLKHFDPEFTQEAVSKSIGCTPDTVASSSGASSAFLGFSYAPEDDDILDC

GST-PKBα, P31749, sequence (P31749 whole entry, looked up): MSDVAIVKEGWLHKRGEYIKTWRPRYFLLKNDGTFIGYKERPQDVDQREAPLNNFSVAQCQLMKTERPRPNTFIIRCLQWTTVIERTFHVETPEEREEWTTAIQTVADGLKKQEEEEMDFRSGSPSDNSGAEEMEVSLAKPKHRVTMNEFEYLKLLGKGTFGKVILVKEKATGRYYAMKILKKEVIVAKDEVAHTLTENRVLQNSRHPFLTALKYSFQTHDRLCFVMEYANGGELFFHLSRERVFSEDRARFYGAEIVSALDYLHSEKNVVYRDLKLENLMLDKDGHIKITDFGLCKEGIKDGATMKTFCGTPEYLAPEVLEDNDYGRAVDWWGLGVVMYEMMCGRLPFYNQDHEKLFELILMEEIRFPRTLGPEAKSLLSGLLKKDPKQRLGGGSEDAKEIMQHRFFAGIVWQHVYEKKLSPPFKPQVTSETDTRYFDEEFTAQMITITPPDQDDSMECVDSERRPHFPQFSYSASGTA

B1: GST-PDK1 (protein)
chain: MARTTSQLYDAVPIQSSVVLCSCPSPSMVRTQTESSTPPGIPGGSRQGPAMDGTAAEPRPGAGSLQHAQPPPQPRKKRPEDFKFGKILGEGSFSTVVLARELATSREYAIKILEKRHIIKENKVPYVTRERDVMSRLDHPFFVKLYFTFQDDEKLYFGLSYAKNGELLKYIRKIGSFDETCTRFYTAEIVSALEYLHGKGIIHRDLKPENILLNEDMHIQITDFGTAKVLSPESKQARANSFVGTAQYVSPELLTEKSACKSSDLWALGCIIYQLVAGLPPFRAGNEYLIFQKIIKLEYDFPEKFFPKARDLVEKLLVLDATKRLGCEEMEGYGPLKAHPFFESVTWENLHQQTPPKLTAYLPAMSEDDEDCYGNYDNLLSQFGCMQVSSSSSSHSLSASDTGLPQRSGSNIEQYIHDLDSNSFELDLQFSEDEKRLLLEKQAGGNPWHQFVENNLILKMGPVDKRKGLFARRRQLLLTEGPHLYYVDPVNKVLKGEIPWSQELRPEAKNFKTFFVHTPNRTYYLMDPSGNAHKWCRKIQEVWRQRYQSHPDAAVQ
increase of SGK activity (Crosstide assay) after phosphorylation by PDK1 [1]: phosphor-ylation was accompanied by a 10-fold increase in the basal activity
maximal stoichiometry of phosphorylation by PDK1 [1]: the maximal stoichiometry of phosphorylation that could be attained was 0.05 mol/mol
stoichiometry of phosphorylation at 1.5 µg/ml PDK1, 30 min [1]: close to 1 mol/mol for SGK1 and SGK3
extent of phosphorylation by PDK1 (GST-SGK[S422A], O00141): The mutation of Ser422 to Ala did not affect the extent of phosphorylation of SGK by PDK1
reduction of the extent of activation by PDK1 (GST-SGK[S422A], O00141): reduced the extent of activation by 60%
reduction of phosphorylation by PDK1 [2]: phosphorylation by PDK1 was reduced by 80-90%
activation and phosphorylation by PDK1, against wild type SGK2α (GST-SGK2α[S356D]): SGK2[Ser356Asp] was activated (FIG. 17B) and phosphorylated (FIG. 17E) by PDK1 much more effectively than wild type SGK2α
phosphate incorporated, 30 min with 1.5 µg/ml PDK1 and MgATP (GST-SGK2α[S356D]): incorporation of 1.2 and 1.3 mol phosphate per mol protein, respectively
maximal stoichiometry of phosphorylation by PDK1 (GST-PKBα, P31749): compared to 0.5 mol/mol for PKBα
reduction of phosphorylation by PDK1 [3]: reduced phosphorylation by 80-90%
stoichiometry of phosphorylation by PDK1 [4]: phosphorylated by PDK1 to a stoichiometry of 0.6 mol/mol protein
phosphorylation by PDK1 [5]: This mutant was phosphorylated at the same rate, and to the same extent, as wild type SGK
phosphate incorporated, 30 min with 1.5 µg/ml PDK1 and MgATP (GST-SGK3 (wild type)): incorporation of 1.2 and 1.3 mol phosphate per mol protein, respectively
stoichiometry of phosphorylation at 1.5 µg/ml PDK1, 30 min (GST-SGK3 (wild type)): close to 1 mol/mol for SGK1 and SGK3
rate of phosphorylation and activation by PDK1, against wild type (GST-SGK[S422D], O00141): stimulated the rate of phosphorylation (FIG. 5C) and activation (FIG. 5D) by PDK1 at least six-fold
reduction of phosphorylation by PDK1 (GST-SGK[T256A], O00141): reduced phosphorylation by 80-90%
stoichiometry of phosphorylation at 1.5 µg/ml PDK1, 30 min (GST-SGK2α (wild type)): 0.2 mol/mol for SGK2
